Experimental data as given in patent US20140349871A1 (University of Washington, published 2014).

Target: T1, prohibitin-2 (PHB2) (human, UniProt Q99623 2-299)
T1 construct: whole, on cells; also called BAP37
Assay: in vivo PIR (BDP-NHP) cross-linking of intact HeLa cells, ReACT LC-MS3

T1 sequence (Q99623 2-299): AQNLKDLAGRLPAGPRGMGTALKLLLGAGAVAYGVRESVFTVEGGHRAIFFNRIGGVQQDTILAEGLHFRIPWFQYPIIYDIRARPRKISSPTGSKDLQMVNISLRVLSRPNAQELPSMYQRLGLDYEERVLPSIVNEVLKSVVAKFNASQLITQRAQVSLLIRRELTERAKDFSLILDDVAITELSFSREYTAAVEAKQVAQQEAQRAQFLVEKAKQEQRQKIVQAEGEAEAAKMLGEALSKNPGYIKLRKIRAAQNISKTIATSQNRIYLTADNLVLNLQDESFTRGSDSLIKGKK

binding result: binds
B1: prohibitin (PHB) (other, human, UniProt P35232 2-272, looked up)
chain: AAKVFESIGKFGLALAVAGGVVNSALYNVDAGHRAVIFDRFRGVQDIVVGEGTHFLIPWVQKPIIFDCRSRPRNVPVITGSKDLQNVNITLRILFRPVASQLPRIFTSIGEDYDERVLPSITTEILKSVVARFDAGELITQRELVSRQVSDDLTERAATFGLILDDVSLTHLTFGKEFTEAVEAKQVAQQEAERARFVVEKAEQQKKAAIISAEGDSKAAELIANSLATAGDGLIELRKLEAAEDIAYQLSRSRNITYLPAGQSVLLQLPQ
notes: whole, on cells; also called prohibitin 1; BAP32
